For the experiment, the target named is T1, rat serum albumin (rat, UniProt P02770 25-608).
T1 construct: Control coat in the screening ELISA; also called RSA
The experiment in a line: method not stated (unpublished results); unpublished results; method and construct not stated.

T1 sequence (P02770 25-608 limits assumed): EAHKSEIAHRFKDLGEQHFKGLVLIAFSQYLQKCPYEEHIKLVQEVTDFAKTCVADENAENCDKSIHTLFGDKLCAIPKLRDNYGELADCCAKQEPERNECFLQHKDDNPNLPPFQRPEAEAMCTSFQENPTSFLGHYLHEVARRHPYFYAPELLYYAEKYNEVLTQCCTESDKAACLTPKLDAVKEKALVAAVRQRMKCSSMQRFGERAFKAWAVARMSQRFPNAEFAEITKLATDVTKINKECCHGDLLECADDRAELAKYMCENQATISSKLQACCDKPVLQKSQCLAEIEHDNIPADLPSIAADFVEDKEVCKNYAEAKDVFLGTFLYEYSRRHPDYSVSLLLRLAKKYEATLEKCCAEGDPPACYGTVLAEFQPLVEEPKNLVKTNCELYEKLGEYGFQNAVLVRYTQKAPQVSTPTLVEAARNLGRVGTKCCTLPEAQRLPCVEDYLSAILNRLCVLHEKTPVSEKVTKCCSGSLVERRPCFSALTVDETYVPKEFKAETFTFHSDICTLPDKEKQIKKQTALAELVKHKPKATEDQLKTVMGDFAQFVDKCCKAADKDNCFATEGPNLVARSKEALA

B1: ABDwt (construct not stated; unpublished results) (other)
chain: LAEAKVLANRELDKYGVSDYYKNLINNAKTVEGVKALIDEILAALP
Usually Kd stands for the constant that tells how readily two partners part at equilibrium. Read a low Kd as higher affinity. Molecule B1 gave a Kd of 70 pM.
